Numbering of substitutions follows the chain as printed.
B1: PRT-513 (protein)
chain: MITSVWTKGVTPPAKFTQGEDVFHAPYVANQGWYDITKTFNGKDDLLCGAATAGNMLHWWFDQNKEEIEAYLKKHPEKQKIMFGDQELLDVRKVINTKDSQTNSALFNYFKDKAFPNLSARRLGVMPDLVLDMFINGYYLNVYKTQTTDVNRTYQTKDRRGGIFDAVFTRGDQSKLLTERHDLKNKTLKEISDLIKQELTEGKALGLSHTYANVRINHVINLWGADFDSNGNLEAIYVTDSDSNASIGMKKYFVGVNSAGKVAISAKEIKEDNIGAQVLGLFTLSTGQDIWNQTNLEHHHHHH
B2: PRT-508 (protein)
chain: B1 chain with A14T, K15D, T17I, Q18K, V28K, N30G
B3: PRT-677 (protein)
chain: MQITSVWTKGVIPPTMDQFRYNNYDVFHAPYLPHQGWYDITKTFDGGDNLLCGAATAGNMLHWWFDQNKEYIENYLKKYPEKQKIIFNNQELFDLRKAINTKDSQTNSELFNYFRDKAFGNLSARQKGVMPDLVLDMFINGYYLNLFKTQSTDVNRPNDTRDKRGGFFDHVFGRGDQTKLLTARHDLYNGGLSDISQLIKQELQSGKALAISHTYGNVSSSHVINLWGADFDAEGNLEAIYVTDSDDRSSIGMKKYYVGINASGKVAISAKKIEGENVGAQVLGLFTLSSGKEIWKKLSLEHHHHHH
B4: PRT-460 (protein)
chain: MVTSVWTKGVTPPTDFIKGEDVFHAPYKAGQGWYDITKTFNGKDDLLCGAATAGNMLHWWFDQNKDQIERYLKEHPEKQKINFNGEQMFDVKEAIDTKDSQTDSKLFEYFKEKAFPYLSTKHLGVFPDHVLDMFINGYRLSLTNHGPTPVKEGSKDPRGGIFDAVFTRGDQSKLLTSRHDLKNKTLKEISDLIKQELTEGKALGLSHTYANVRINHVINLWGADFDSEGNLKAIYVTDSDSNASIGMKKYFVGVNSAGKVAISAKEIKEDNIGAQVLGLFTLSTGQDIWNQTNLEHHHHHH
B5: PRT-496 (protein)
chain: MVTSVWTKGVTPPTDFIKGEDVFHAPYKAGQGWYDITKTFNGKDDLLCGAATAGNMLHWWFDQNKEYIEAYLKKHPEKQKIMFGDQELLDVRKAINTKGSQKNSELFNYFRDKAFPNLSARRLGVMPDLVLDMFINGYYLNVTKTQTTDVNRTYQEKDKRGGIFDAVFTRGDQSKLLTSRHDLKNKGLKEISDLIKQELTEGKALGLSHTYANVRINHVINLWGADFDSDGNLKAIYVTDSDSNASIGMKKYFVGVNSAGKVAISAKEIKEDNIGAQVLGLFTLSTGQDIWNQTNLEHHHHHH
B6: PRT-501 (protein)
chain: B5 chain with T14A, I17T, K18Q, K28V, G30N
B7: PRT-503 (protein)
chain: MITSVWTKGVTPPTDFIKGEDVFHAPYKAGQGWYDITKAFDGGDDLLCGAATAGNMLHWWFDQNKEYIEAYLKKHPEKQKIMFGDQELLDVRKAINTKGSQKNSELFNYFRDKAFPNLSARRLGVMPDLVLDMFINGYYLNVTKTQTTDVNRQEQEKDKRGGIFDAVFGRGDQTKLLTSRHDLKNKGLNEISQLIKQELTEGKALGLSHTYANVRINHVINLWGADFDADGNLEAIYVTDSDSNASIGMKKYFVGVNSAGKVAISAKEIKEDNIGAQVLGLFTLSTGQKIWNKTNLEHHHHHH
B8: PRT-455 (protein)
chain: MITSVWTKGVTPPTDFIKGEDVFHAPYKAGQGWYDITKAFDGGDDLLCGAATAGNMLHWWFDQNKDQIEAYLKEHPEKQKINFNGEQMFDVKEAIDTKDDQTNSELFNYFKEKAFPYLSTKHLGVFPDHVLDMFINGYRLSLTNHGPTPVKRQEKDPRGGIFDAVFGRGDQTKLLTSRHDLKNKTLNEISQLIKQELTEGKALALSHTYANVRINHVINLWGADFDAEGNLEAIYVTDSDSNASIGMKKYFVGVNSAGKVAISAKEIEDDNIGAQVLGLFTLSTGQKIWNKTNLEHHHHHH
B9: PRT-517 (protein)
chain: MITSVWTKGVTPPTDFIKGEDVFHAPYKAGQGWYDITKAFDGGDDLLCGAATAGNMLHWWFDQNKEEIEAYLKKHPEKQKIMFGDQELLDVRKVINTKDSQTNSALFNYFKDKAFPNLSARRLGVMPDLVLDMFINGYYLNVYKTQTTDVNRQEQTKDRRGGIFDAVFGRGDQTKLLTERHDLKNKTLKEISDLIKQELTEGKALGLSHTYANVRINHVINLWGADFDSNGNLEAIYVTDSDSNASIGMKKYFVGVNSAGKVAISAKEIKEDNIGAQVLGLFTLSTGQKIWNKTNLEHHHHHH
B10: PRT-682 (protein)
chain: MQITSVWTKGVTPLTPEQFRNNNEDVIHAPYLANQGWYDITKTFNGKDNLLCGAATAGNMLHWWFDQNKTEIEAYLKKHPEKQKIIFNNQELFDLKKAIDTKDSQTNSQLFNYFRDKAFPNLSARQLGVMPDLVLDMFINGYYLNVFKTQSTDVNRPYQDKDKRGGIFDAVFTRGDQTTLLTSRHDLKNKGLNEISDIIKQELTEGKALALSHTYANVSISHVINLWGADFNAEGNLEAIYVTDSDANASIGMKKYFVGVNAHGKVAISAKKIEGENIGAQVLGLFTLSSGKDIWQKLSLEHHHHHH
B11: PRT-482 (protein)
chain: MVTSVWTKGVTPPTDFIKGEDVFHAPYKAGQGWYDITKTFNGKDNLLCGAATAGNMLHWWFDQNKDQIEAYLKEHPEKQKIIFNNQELFDLKAAIDTKDDQTNSKLFEYFKEKAFPYLSTKHLGVFPDHVLDMFINGYRLSLTNHGPTPVKEGSKDKRGGIFDAVFTRGVQSKLLTSRHDFKEKTLKEISDLIKQELTEGKALALSHTYANVRINHVINLWGADFDSNGNLEAIYVTDSDTNASIGMKKYFVGVNSAGKVAISAKEIEDDNIGAQVLGLFTLSTGQDIWNQTNLEHHHHHH
B12: PRT-667 (protein)
chain: MQITSVWTKGVTPLTPEQFRYNNEDVFHAPYLAHQGWYDITKAFNGKDNLLCGAATAGNMLHWWFDQNKEEIEAYLKKHPEKQKIIFNNQELFDLRKAINTKDSQTNSQLFNYFRDKAFPNLSARQLGVMPDLVLDMFINGYYLNLNKTQSTDVNRPYQDKDKRGGIFDHVFTRGDQTTLLTARHDLKNKTLNDISQLIKQELQEGKALALSHTYANVSISHVINLWGADFNAEGNLEAIYVTDSDSDASIGMKKYFVGKNASGHVAISAKKIEGENIGAQVLGLFTLSSGKEIWQKLSLEHHHHHH
B13: PRT-688 (protein)
chain: MQITSVWTKGVTPLTMDDFTINNEDVIHAPYVANQGWYDITKTFNGKDNLLCGAATAGNMLHWWFDQNKEEIERYLKKHPEKQKIIFNNQELFDLKEAINTKDSQTDSKLFNYFRDKAFPNLSARQLGVMPDLVLDMFINGYYLNVFKTQSTDVNRPYDTKDKRGGIFDHVFTRGDQSTLLTARHDLKNKTLKEISDIIKQELTEGKALALSHTYANVSISHVINLWGADFNAEGNLEAIYVTDSDANASIGMKKYYVGVNSHGKVAISAKKIEGENIGAQVLGLFTLSSGKDIWQKLSLEHHHHHH
B14: PRT-498 (protein)
chain: MVTSVWTKGVTPPTDFRKIVDGNIAYYHAPYKAGQGWYDITKAFDGGDDLLCGAATAGNMLHWWFDQNKEYIEAYLKKHPEKQKIMFGDQELLDVRKAINTKGSQKNSELFNYFRDKAFPNLSARRLGVMPDLVLDMFINGYYLNVTKTQTTDVNRTYQEKDKRGGIFDAVFTRGDQSKLLTSRHDLKNKGLKEISDLIKQELTEGKALGLSHTYANVRINHVINLWGADFDSDGNLKAIYVTDSDSNASIGMKKYFVGVNSAGKVAISAKEIKEDNIGAQVLGLFTLSTGQDIWNQTNLEHHHHHH
B15: PRT-511 (protein)
chain: MITSVWTKGVTPPAKFRKIVDGNIAYYHAPYVANQGWYDITKTFNGKDDLLCGAATAGNMLHWWFDQNKEEIEAYLKKHPEKQKIMFGDQELLDVRKVINTKDSQTNSALFNYFKDKAFPNLSARRLGVMPDLVLDMFINGYYLNVYKTQTTDVNRTYQTKDRRGGIFDAVFTRGDQSKLLTERHDLKNKTLKEISDLIKQELTEGKALGLSHTYANVRINHVINLWGADFDSNGNLEAIYVTDSDSNASIGMKKYFVGVNSAGKVAISAKEIKEDNIGAQVLGLFTLSTGQDIWNQTNLEHHHHHH

The proteins below were run against pooled human IgG (human IgG1,2,3 and 4).

Protein	Enzyme Activity Endpoint Assay: Fab′2 [ng/µL]	Enzyme Activity Endpoint Assay: Fc [ng/µL]	Enzyme Activity Endpoint Assay: IgG [ng/µL]	Enzyme Activity Endpoint Assay: scIgG [ng/µL]	Enzyme Activity Endpoint Assay (purified): Fab′2 [ng/µL]	Enzyme Activity Endpoint Assay (purified): Fc [ng/µL]	Enzyme Activity Endpoint Assay (purified): IgG [ng/µL]	Enzyme Activity Endpoint Assay (purified): scIgG [ng/µL]
B1	397	367	374	0	–	–	–	–
B2	0	0	0	0	–	–	–	–
B3	0	0	0	0	–	–	–	–
B4	49	108	26	64	–	–	–	–
B5	190	192	0	0	–	–	–	–
B6	–	–	–	–	0	0	1950	0
B7	0	0	0	0	–	–	–	–
B8	872	416	0	333	–	–	–	–
B9	–	–	–	–	0	0	–	22
B10	0	0	0	0	–	–	–	–
B11	261	322	146	738	–	–	–	–
B12	–	–	–	–	61	197	279	896
B13	–	–	–	–	0	0	1950	0
B14	–	–	–	–	488	318	325	124
B15	–	–	–	–	935	312	62	0
